Results as given in PMC8503845.

Biological target: SZ*-GFP-Ub4 (HA-tagged) (UniProt P0CG63)
Assay: co-IP

fold increase of binding relative to the Ubx2-SZ*-GFP complex: 10 fold
B1: Ubx2-6xGly-3xFLAG (natural protein)
chain: MPVVNHEDSEFHLSHTEEDKLNEFQVITNFPPEDLPDVVRLLRNHGWQLEPALSRYFDGEWKGEPDQMGEPTQTSTPMAETLVPPALGPRPLLFTASLPVVRPLPANFRNDFRTIGLNGRSNTVWSMFESFSYDGNPFLFILLLIPRIINRLSATIFTFFCTLLSLHSISGGGNSGKPKISKVPKAPTRETHIPLAEILGDTKDKDAFCELKSFKPDISFNEALRIAKEEFKFMLLILVGDTYDTDTDTVDVNSKLLLEKILLNKKTLQYLRKIDNDLIIYLKCVHELEPWLVARQLGVRNTPEIFLIANVANKASHSETLPSQRLSILGKLKVNSLNRFLQSLTNVVEKYTPELVVNKTEMHELRMSREIKKLQEDAYKKSLEMDRIKAIEKEKSLKHAQDLKLNSTARQLKWLKACIDEIQPFETTGKQATLQFRTSSGKRFVKKFPSMTTLYQIYQSIGCHIYLAVYSSDPAEWSNALQDKIRQLSADDDMLCFKEGQLETATATTIEELGHIINNELTSFDLERGKLEFDFELVSPFPKYTVHPNEHMSVDQVPQLWPNGSLLVEALDEEDEEDEENEEQ
